Assay results: US20250092426, “CAS ENDONUCLEASES AND RELATED METHODS” (Flagship Pioneering Innovations VII, LLC, published 2025)

Target: T1, CasEnd-37 (synthetic construct)
T1 chain: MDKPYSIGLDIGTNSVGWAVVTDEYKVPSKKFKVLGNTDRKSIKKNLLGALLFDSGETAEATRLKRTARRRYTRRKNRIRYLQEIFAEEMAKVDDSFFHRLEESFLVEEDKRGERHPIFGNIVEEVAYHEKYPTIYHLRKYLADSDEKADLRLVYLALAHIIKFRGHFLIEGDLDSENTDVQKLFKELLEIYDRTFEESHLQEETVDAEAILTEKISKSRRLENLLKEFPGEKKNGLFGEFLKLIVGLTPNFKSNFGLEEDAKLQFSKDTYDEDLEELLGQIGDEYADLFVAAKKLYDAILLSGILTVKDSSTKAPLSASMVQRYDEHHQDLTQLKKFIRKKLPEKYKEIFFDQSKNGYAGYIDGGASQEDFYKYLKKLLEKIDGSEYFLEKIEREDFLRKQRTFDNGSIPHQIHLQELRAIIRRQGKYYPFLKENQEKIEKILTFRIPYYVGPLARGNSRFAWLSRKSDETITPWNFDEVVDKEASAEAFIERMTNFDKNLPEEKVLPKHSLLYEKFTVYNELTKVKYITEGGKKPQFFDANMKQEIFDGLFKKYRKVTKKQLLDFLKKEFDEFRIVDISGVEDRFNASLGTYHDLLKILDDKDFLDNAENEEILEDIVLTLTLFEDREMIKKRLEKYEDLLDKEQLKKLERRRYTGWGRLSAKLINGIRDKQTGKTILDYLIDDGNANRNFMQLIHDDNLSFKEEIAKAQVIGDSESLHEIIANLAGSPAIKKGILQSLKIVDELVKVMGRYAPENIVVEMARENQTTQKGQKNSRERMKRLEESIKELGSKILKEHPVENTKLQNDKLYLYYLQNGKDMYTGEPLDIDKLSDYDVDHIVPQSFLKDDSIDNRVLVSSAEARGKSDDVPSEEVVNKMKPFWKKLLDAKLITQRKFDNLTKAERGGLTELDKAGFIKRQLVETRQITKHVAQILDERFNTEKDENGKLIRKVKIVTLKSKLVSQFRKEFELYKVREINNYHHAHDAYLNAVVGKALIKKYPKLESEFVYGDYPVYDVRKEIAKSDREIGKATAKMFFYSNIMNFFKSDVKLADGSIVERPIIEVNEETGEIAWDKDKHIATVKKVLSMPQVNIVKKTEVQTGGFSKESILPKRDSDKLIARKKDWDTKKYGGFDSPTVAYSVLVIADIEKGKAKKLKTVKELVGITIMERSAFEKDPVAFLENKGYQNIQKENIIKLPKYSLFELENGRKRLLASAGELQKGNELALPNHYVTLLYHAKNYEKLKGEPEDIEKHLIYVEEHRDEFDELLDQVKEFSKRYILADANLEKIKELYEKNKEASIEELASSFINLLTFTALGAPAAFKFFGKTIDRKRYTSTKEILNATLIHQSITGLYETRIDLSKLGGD
Assay: cell_activity; +++; HEK293T; PAM not stated
How it was run: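 BFP-to-GFP conversion via reverse transcriptase fusion with each Cas endonuclease plus template RNA: 200 ng of each plasmid nucleofected into 250,000 BFP-expressing HEK293T cells (program DS-150). Percent GFP+ cells by flow cytometry at day 4 measured editing.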

B1: BFP-to-GFP template RNA ; BFP reporter protospacer (ssRNA ; dsDNA)
RNA: GCCGAAGCACUGCACGCCGUGUUUUAGAGCUAGAAAUAGCAAGUUAAAAUAAGGCUAGUCCGUUAUCAACUUGAAAAAGUGGCACCGAGUCGGUGCACCCUGACGUACGGCGUGCAGUGCUU
DNA 1: GCCGAAGCACTGCACGCCGT
DNA 2: ACGGCGTGCAGTGCTTCGGC
B1 was tested, and the activity was ≥ 100 % of reference.
